Reference: the domain aggregation screens of Martell et al. (2025)

Assay: soluble fraction after stress (log2 fold change); higher = more stays soluble; pooled small domains, quantitative proteomics
Conditions: stress: 75 degC
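Further: 20 min heating vs room temperature control held 20 min.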

Row | Sequence | soluble fraction (log2)
1 | HMRKKTYEIITDDLRRMIEAGLIRPGEKLGAIDQLAAKYRVGRSTVREALSHLKALGLVESRQGGGTYVTK | 0.375
2 | HMRKNVAGITPNVYGMGLKDAVYLLENAGYRVKVNGRGNVVRQSINSGTRIIKGQLIILDLD | -3.62
3 | HMRKSNADALDGKTGIVKEEIKTGGYGYVGIDGDMWRSISESGEAIPAGTKVVVISHESIILTVKPA | -2.23
4 | HMRKTLASTAYDSIKAGIVSGEINNNLLLSENTLAKILNMSRTPIREAIKRLEAESYLKSVDGVGLIVQE | -0.43
5 | HMRKTLSQEAYEKIKQNLEDGVYQGYINGRQVARDLDIGFTPVREAFLQLQSEGLIRKEDNVGYFV | -0.107
6 | HMRKTYHVDAYQDDKWWVLQVQEMPNAISQVKSLDQADEWIREAINIVSNEPEDSFDVVIIPV | -0.404
7 | HMRKVTDTHELSSVVKSVIDQWEEKAAEYRAGKSGLLGFFVGEVMKKTGGAADPEAAKSLLQDRLD | 0.0219
8 | HMRKYEAVPASVVPAQIQEYVAKSNFPNQYIRKIERNKYTWEIELSNGLEIKFDRQFNVIGFD | -2.59
9 | HMRLGQLQSVEEPKFIEVHSGKQGDIGEQTIVEYEIDAKYATGDATINLKLLFRDGLFEIYNFNFSSEALL | 0.133
10 | HMRLNIRTKNNYSYYTIIKDYTNLNGKRTTTIFEKLGNQQQVEERFGKVNTIENIKKYIEELNNE | -1.65
11 | HMRLPAISYSFARKHGVVLRLDGDRPVASLREGADPAILIEVKRHLDGAMGVEKVSEAAFDQLLSTTYA | -1.53
12 | HMRLPNGYGSITKLSGKRRKPFMVRITTGYDNEGKQLMSVLGYYATRTEALAVLAEYNKNPYNPI | -3.36
13 | HMRLPNHYGSVVKLSGKRRRPFMVRGGVYGYDDRGYPQYVIVGYTETREQGLTMLAEYNRNP | -3.17
14 | HMRLPVELTDREVEVLRLLAQAMSNGEIARELYIGEATVKTHVSNVLQKLGARDRVAAVVWAHRYGL | -2.08
15 | HMRLSAADLQSYLKGMDYPASRQDLIAHARGHNAPEEAVATLEQFSDRTYRSAADVSVEFGRE | 0.254
16 | HMRLSPTMVETLIAMLNRNAYPAYENNSRTFASLEERGLIQPDIEGNWSLTDTGHQTALKLLK | 0.463
17 | HMRLSVRQRMSDVLGALKTQAFVEFTQLFRPQEGRMGVTVTFSAILELLREGLIEIVQSEPFAPIHVRAGA | 0.183
18 | HMRMDKHLWLSLLRLINEGSAEELQTKKDELLQSLERLRITRGPVRGDVLRVVRLIDEELVSRLHLDQR | -2.58
19 | HMRMTKPLPFDLAAFRNEFGFTKSIIMQEVGVSRHIYDNVERTNATPPEFYDDFVSFFQRHGQ | -1.88
20 | HMRMTPRQALDDLIREREETYAAVSRLLGRNTAYIQQYIKRGTPARLDQSDIAQLALHFDVPAKLLGGKE | -1.16
21 | HMRMTTEQLMSFLKQHFPQVADNFTVRISDEGRLSVEMPVNDKHLRPGGTVSGPSMFALADVAFYLAILQ | -1.56
22 | HMRNERDRQLYAAMEKLKAEYREALYLVYFENMSYRDAAAVMAQTEKQISNLVYRGKQSLKTILEQEGF | -2.6
23 | HMRNGGHTVYRNNGSLFIVVRDGDKLESVASEFRVSPKKLIKYNDLDIHSNVKTGDMIYIRPKA | -0.423
24 | HMRNLYEILGVSKDAPQGEIKSAYRKLAKTYHPDLNPNNEKAAELFKEINQAYEVLSDETKRRHYDQFGEA | 0.342
25 | HMRNMTDYLTIVRAVYGGLSQRQAATTYHVSRNTVSLLIRHAKNQGWLTVEDLSRADAAAFSPA | -0.393
26 | HMRNMVSVLDHIEGIGPKRRQLLYEHYGELEKIKEASVEEMAGLDGMNRPAAEAVYNFFLAQRNL | -0.247
27 | HMRNSSLQTDLELRAYVIDGLNHFWTPEEIAGRWSLAHPDRPVSFATIYRHIKRKLLPGIEPKTHLRRRGK | -2.54
28 | HMRPEARAASLSDEERKIFDYLAANGEKTIDNISVAVKMSAADILKNITLMSAKGLVYMPSAGRYGVKGN | -0.297

Row | Sequence | soluble fraction (log2)
29 | HMRPNREKDMADLEKLAPFLLQMLTNYAQMTGDEKPLNAFITRFGYAAQIRDIQDFFMGPWHPA | ≥ 1.04
30 | HMRPQIAIDAIQALSLIMRTENKEDPTYLESRRVVSDAVAKRLSLNPTDLNRAWSRAPRDHQIAVLSALTQ | -1.34
31 | HMRPRGTRLPTGWTPSSDALDWTKAEKPGLDPLQTLEKFRDYWTAQPGQKGVKTDWDATWRNWVRREIP | -0.104
32 | HMRPSGTAGILRYLSSGAIRGIGATTAQRLVSEFGEKTLDVMENEPERVAMLKGISKSKAEDFSLQLKQS | -0.0414
33 | HMRPTAWEQVSRHIDQHGSIGNTEVRKAMETENVLAASKQIKKWLEQGLLIILNPTAGTRARRYSKPNM | -1.19
34 | HMRPTDVLNYDESMRILNFSNNRVGFKHLMDAKGIEQVIFKNRKIGYRKSEILALKSELEAEQK | -0.958
35 | HMRPYAYGTGRRKSSTARVHLIPNGSGSITINGRTLDEYFGLETLKLIVRQPLAATETAEKFDVEATVV | -0.638
36 | HMRQDEKTLLYWIGAQVKREGKLIKTSTAQYLVEKTGTDMENLEKELEKLFAYTLDEKEITPAAIDEI | -1.77
37 | HMRQIRELFRLKFGSLLPTSDRQIAAQLGVARSTVAEYLERARAAGLSWPLPLDLSDADLEERLFA | -3.08
38 | HMRQMSEELQSAKEALEDRRTQEKAVLLLMEHRNISNDEAHRLLRKLAMDQGKRLPEVARALVSMAGVL | -0.319
39 | HMRQSKMREAILAAVSAQKLEISDLHVWRIGEQRYAAIIGLATTQAESVSALRDSLAQMDKLVHLTIDQ | -2.21
40 | HMRQTGWVTADSLNVRARPSLQAERVEKVTYGQQVQIMFKQGQWYQIATENGKIGWVSSEYIAAVSP | -2.4
41 | HMRRELDSEHKRQEILFAAKRLLLAEGYDATSMSRLAKEAGVAPNTLYWYFKDKDELLIAILDELVAE | -2.74
42 | HMRRGKLGMASRLEQIPGIGPKKRKALLKAFGNSIDAIKSAPVEDLMKVKGINLVLAESIKEL | -0.11
43 | HMRRMTEEQSKLFQGLVSIVQTTLVADMEKGAVTPLLIAEKVDFVADNLYPGKDIDRKEAVAELIRRFSLW | -1.67
44 | HMRRSKQERQQAIKTLISNEQIQRQEDLVRKLNEAGWEVTQATISRDITEMQLVKVPLPTGGFAYAVM | -0.0517
45 | HMRRSKVMLESILDEIPQMGQARRAALLEQFGSVAALRKASLAEIAMTPGIGEKIAVIIFEYLQKSSH | -1.69
46 | HMRRTEKEIEQDVMRAIATIISEKGISSVTIKEVSNLSKTDVIVLERRFKNDEGLIKAYTSQ | -1
47 | HMRSFADEGTVEEWIKQAIRENEAAVADYRKGKETAVKFLMGQVMRLSKGEANPADLEDKIKAKLD | 0.0142
48 | HMRSFGTVAQARGRWKAFYVGPDKRRHTPGVTFSNPIRAQGWLAQELTLIELGQWTPPAQRREKAEVAS | -2.26
49 | HMRSIVETLTDRELEIFQLIGNGFSTGEIARRLNLSPHTIETHRKNIKDKLGLSSGSELNKQAIQWVLSS | 0.244
50 | HMRSKTSYAVWTPIQIDAGSQMQALQSKGFNTVLMEGGISVGIRSDKAQAQALLNRLQGAGFTGQLREVN | -0.173
51 | HMRSLATFEEEKIALRFWNYLQSEGIKSTLEEEGPRDWVIWVIDEEKIPSATQSLEKFNLNPDDPAFSN | -0.784
52 | HMRSLVDRSVQAVTDHIRENALRVGDSLPGEAYFATSLGVSRAVMREAFGALAALRVIDVGNGRKPRVGAI | -0.687
53 | HMRSMEKRLTAKVKRVQEGVQAKSQAGEQPFEVVKLMQRFPKLMQFGKHAEAETVLDKALELLGEE | -0.0318
54 | HMRSQLALVVRTGESQRLDNFLVNNLAWKSRNRLQGLIREGLVTVNGEKTKASRRVHLDDLVEIHL | -1.31
55 | HMRSTIYEFTVPPGQLESIRLDVYITSFVENATRSKVQEAIKQGYVWVNGKHEKASYTMLPGDKIYIELPI | -2.65
